Patent US20060040319A1 (published 2006)
Where no end group is shown, it is not given here.

Biological target: Rh-(Crk-II)-Fl (mouse, UniProt Q64010 2-304, N-alpha-tetramethylrhodamine (Rh) on the N-terminal KRG peptide); Dapa(Fl) = diaminopropionic acid-fluorescein in the C-terminal peptide; K-epsilon-(Biotin) and C-terminal amide (present in the …)
Test: cell-based or functional assay

Chain of Rh-(Crk-II)-Fl (Q64010 other isoform, or with tags, fused parts or gaps limits assumed): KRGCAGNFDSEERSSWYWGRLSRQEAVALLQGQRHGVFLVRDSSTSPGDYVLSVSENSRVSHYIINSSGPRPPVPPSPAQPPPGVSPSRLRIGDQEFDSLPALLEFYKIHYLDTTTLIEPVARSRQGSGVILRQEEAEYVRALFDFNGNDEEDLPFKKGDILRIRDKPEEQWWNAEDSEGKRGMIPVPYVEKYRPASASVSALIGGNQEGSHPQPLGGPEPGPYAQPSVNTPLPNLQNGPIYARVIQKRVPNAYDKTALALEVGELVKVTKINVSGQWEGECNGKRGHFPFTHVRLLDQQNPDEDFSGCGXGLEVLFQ

- reduction in the change in FRET after 60 minutes reaction with full length c-Abl, relative to the positive control: 50%
Binder: PPPALPPKRRR-NH2 [PPPALPPKRRR-NH2, high affinity ligand for the N-SH3 domain of Crk]
